± gives the standard deviation of the averaged measurements.
Test system: ATP
Experiment: switch fluorescence ratio, 500 uM ATP over buffer (Cy3 cluster intensity, sum of 5 cycles each) (fold (ratio)); higher = stronger signal-on switching upon ATP binding; sequences stand for … in TCGTCGGCAGCGTCAGATGTGTATAAGAGACAGTTTTTTTTTTTTTTTTTTTTTTTTT…TC
Conditions: aptamer strand: ATP DNA aptamer (quencher-CACCTGGGGGAGTATTGCGGAGGAAGG + anchor), 100 nM annealed; ATP concentration: 500 uM
Summary of the method: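 Imaging in selection buffer was followed by imaging after 15 min with 500 uM ATP at 22 °C, for Cy3-labelled switching-strand clusters annealed to 100 nM quencher-labelled ATP aptamer on a modified Illumina MiSeq flow-cell. Five of these buffer/ATP cycles ran, separated by NaOH stripping and re-annealing. The fluorescence ratio per cluster is summed target-cycle over summed buffer-cycle Cy3 intensity, averaged per switch-domain sequence; clusters outside 100-1000 RFU were removed.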
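Note: ATP exposure 15 min at 22 °C before imaging.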

Row | Sequence | switch fluorescence ratio
1 | GCCTAAGGGA | 1 ± 0.0063
2 | GCCTAATTGA | 0.98434 ± 0.00034
3 | GCCTACGGCC | 1.004 ± 0.0021
4 | GCCTAGCATA | 1.02 ± 0.018
5 | GCCTATGCGG | 1.01 ± 0.0033
6 | GCCTCAAGTT | 1.03 ± 0.052
7 | GCCTCCCGGG | 1.136 ± 0.0053
8 | GCCTGAAGGG | 1 ± 0.014
9 | GCCTGAGGGA | 1.05 ± 0.049
10 | GCCTGCCGTT | 0.996 ± 0.033
11 | GCCTTAGCGG | 1.03 ± 0.048
12 | GCCTTATTTT | 1 ± 0.027
13 | GCCTTCTGGA | 1.05 ± 0.036
14 | GCCTTGCCTT | 1.03 ± 0.013
15 | GCCTTTTCTG | 0.962 ± 0.031
16 | GCCTTTTTTT | 0.991 ± 0.029
17 | GCGAAAAGGG | 1.024 ± 0.0069
18 | GCGAAACAGG | 1.11 ± 0.06
19 | GCGAAAGGGT | 1 ± 0.015
20 | GCGAACGCGC | 1.27 ± 0.011
21 | GCGAATAGTT | 1.005 ± 0.0067
22 | GCGAATGATG | 0.966 ± 0.024
23 | GCGAATGCGG | 1.006 ± 0.003
24 | GCGACAAGAG | 1.03 ± 0.067
25 | GCGACAGGAC | 1.48 ± 0.12

Row | Sequence | switch fluorescence ratio
26 | GCGACGGGCG | 0.972 ± 0.044
27 | GCGACTAGGC | 1.03 ± 0.068
28 | GCGAGAAATC | 1.08 ± 0.019
29 | GCGAGAACGG | 1.01 ± 0.034
30 | GCGAGATGAT | 0.977 ± 0.022
31 | GCGAGCAGTA | 1.01 ± 0.028
32 | GCGAGCCACG | 1.007 ± 0.0076
33 | GCGAGCGGGT | 1 ± 0.016
34 | GCGAGGGATG | 1.002 ± 0.0043
35 | GCGAGGGTGT | 1.12 ± 0.039
36 | GCGATACTCG | 3.56 ± 0.16
37 | GCGATCGTTT | 0.992 ± 0.011
38 | GCGATGGTCG | 0.937 ± 0.14
39 | GCGATTATAT | 0.969 ± 0.049
40 | GCGATTGGAT | 1.03 ± 0.0022
41 | GCGATTGGGG | 0.9705 ± 0.0044
42 | GCGATTTATG | 0.9723 ± 0.0051
43 | GCGCAATCTG | 1.98 ± 0.52
44 | GCGCATAGGG | 1.04 ± 0.044
45 | GCGCATTAGC | 1.3 ± 0.061
46 | GCGCGAGTAG | 1.03 ± 0.028
47 | GCGCGCTAGT | 1.007 ± 0.0024
48 | GCGCGGCTTC | 1.03 ± 0.034
49 | GCGCGTATAT | 1.07 ± 0.044
50 | GCGCGTCAAG | 1.012 ± 0.009

Row | Sequence | switch fluorescence ratio
51 | GCGCGTTTTT | 1 ± 0.016
52 | GCGCTAATTT | 1.28 ± 0.59
53 | GCGCTAGGGC | 1 ± 0.014
54 | GCGCTCGTAC | 2.27 ± 0.15
55 | GCGCTTGAAC | 1.15 ± 0.051
56 | GCGCTTGAGG | 1.006 ± 0.0083
57 | GCGCTTGGAA | 1.02 ± 0.049
58 | GCGCTTTTCT | 0.9784 ± 0.0063
59 | GCGGAAAGAA | 0.962 ± 0.02
60 | GCGGAAAGGA | 1 ± 0.038
61 | GCGGAAAGGG | 0.992 ± 0.021
62 | GCGGAAGGG | 0.996 ± 0.0087
63 | GCGGAATAGG | 1.038 ± 0.0062
64 | GCGGAATGGG | 1.01 ± 0.019
65 | GCGGACAGGA | 1 ± 0.029
66 | GCGGAGCATG | 1.1036 ± 0.00099
67 | GCGGATGAGA | 1.056 ± 0.0096
68 | GCGGATTCGG | 0.9551 ± 0.0048
69 | GCGGATTGAA | 0.988 ± 0.044
70 | GCGGCCAGGG | 1.23 ± 0.15
71 | GCGGCGGGGG | 0.99 ± 0.031
72 | GCGGCTTCGT | 1.02 ± 0.07
73 | GCGGGAAAGG | 0.978 ± 0.012
74 | GCGGGACGTT | 0.96828 ± 0.00072
75 | GCGGGATACA | 1.07 ± 0.034

Row | Sequence | switch fluorescence ratio
76 | GCGGGATCCG | 1.06 ± 0.083
77 | GCGGGCAGGA | 1.02 ± 0.021
78 | GCGGGCGATG | 0.9902 ± 0.00014
79 | GCGGGCGTTG | 0.996 ± 0.053
80 | GCGGGCTTCA | 1.01 ± 0.025
81 | GCGGGGACAA | 1.069 ± 0.0083
82 | GCGGGGACAT | 0.994 ± 0.013
83 | GCGGGGACGG | 1.07 ± 0.034
84 | GCGGGGCCTT | 0.9811 ± 0.004
85 | GCGGGGCGGG | 1.02 ± 0.017
86 | GCGGGGTACT | 1.11 ± 0.055
87 | GCGGGTATGA | 0.964 ± 0.052
88 | GCGGGTCAAA | 0.9883 ± 0.0093
89 | GCGGGTCAGC | 1.01 ± 0.012
90 | GCGGGTTGCC | 0.9871 ± 0.0013
91 | GCGGGTTTGG | 1.01 ± 0.018
92 | GCGGTAACCA | 0.992 ± 0.033
93 | GCGGTAGCAT | 1.02 ± 0.012
94 | GCGGTAGGTT | 1.01 ± 0.013
95 | GCGGTCAAAC | 1.06 ± 0.036
96 | GCGGTGCTGG | 0.991 ± 0.024
97 | GCGGTGGCGG | 0.987 ± 0.039
98 | GCGGTGGTTT | 0.998 ± 0.017
99 | GCGGTGTTGG | 0.9887 ± 0.006
100 | GCGGTTCGAA | 0.997 ± 0.084

Row | Sequence | switch fluorescence ratio
101 | GCGGTTGCCA | 0.982 ± 0.033
102 | GCGGTTGTTC | 0.995 ± 0.034
103 | GCGTAAAGAT | 0.992 ± 0.034
104 | GCGTAAAGGG | 0.99 ± 0.043
105 | GCGTAAGCAG | 0.981 ± 0.012
106 | GCGTACAAGA | 1.04 ± 0.061
107 | GCGTATGTAC | 1.212 ± 0.0081
108 | GCGTCCGACT | 0.986 ± 0.06
109 | GCGTCTATTA | 0.995 ± 0.012
110 | GCGTCTTGGG | 0.96 ± 0.025
111 | GCGTGACGGC | 0.981 ± 0.033
112 | GCGTGGGGGG | 1 ± 0.016
113 | GCGTGTAGAT | 1.04 ± 0.036
114 | GCGTTAACGC | 0.9731 ± 0.0096
115 | GCGTTAATGG | 1 ± 0.02
116 | GCGTTAGCGC | 0.968 ± 0.012
117 | GCGTTAGCTT | 0.982 ± 0.069
118 | GCGTTAGGGT | 0.976 ± 0.027
119 | GCGTTAGTAC | 1.09 ± 0.031
120 | GCGTTAGTAG | 0.9971 ± 0.0082
121 | GCGTTAGTTG | 1.01 ± 0.057
122 | GCGTTCACGG | 0.988 ± 0.026
123 | GCGTTCATGG | 1.04 ± 0.0093
124 | GCGTTCGTGG | 1.02 ± 0.027
125 | GCGTTGCATT | 1 ± 0.017

Row | Sequence | switch fluorescence ratio
126 | GCGTTGGAAA | 0.997 ± 0.015
127 | GCGTTGGGGG | 0.995 ± 0.037
128 | GCGTTTAACT | 0.9888 ± 0.008
129 | GCGTTTAAGT | 1.02 ± 0.032
130 | GCGTTTATGT | 0.953 ± 0.025
131 | GCGTTTGCGC | 1.03 ± 0.016
132 | GCGTTTGGAC | 1.056 ± 0.01
133 | GCGTTTGGCT | 0.996 ± 0.021
134 | GCGTTTGGGC | 0.99 ± 0.057
135 | GCGTTTGTGG | 1 ± 0.011
136 | GCGTTTTAAC | 1.019 ± 0.0093
137 | GCGTTTTGTC | 0.96229 ± 0.00085
138 | GCTAAAAAGA | 1 ± 0.076
139 | GCTAAAAGTT | 0.995 ± 0.021
140 | GCTAAACGAT | 1.03 ± 0.055
141 | GCTAAAGGGG | 1.19 ± 0.31
142 | GCTAAAGGTA | 0.986 ± 0.011
143 | GCTAAAGTCT | 1.043 ± 0.0085
144 | GCTAACGGTT | 0.981 ± 0.011
145 | GCTAATTGTG | 0.975 ± 0.0036
146 | GCTACACAGG | 1.45 ± 0.016
147 | GCTACAGGTT | 1.007 ± 0.0092
148 | GCTACCAAGC | 1.07 ± 0.025
149 | GCTACCCACT | 1.46 ± 0.033
150 | GCTACTGGAT | 1.007 ± 0.0058

Row | Sequence | switch fluorescence ratio
151 | GCTACTGTTA | 1.077 ± 0.0025
152 | GCTACTTAGT | 1.02 ± 0.017
153 | GCTAGAGAGG | 1.04 ± 0.063
154 | GCTAGGCATG | 1.04 ± 0.027
155 | GCTAGGCCTT | 0.9957 ± 0.0082
156 | GCTAGGGTA | 0.9973 ± 0.0043
157 | GCTAGGTGAA | 1.21 ± 0.017
158 | GCTAGGTTTG | 0.998 ± 0.054
159 | GCTAGTGAAC | 1.029 ± 0.0091
160 | GCTATAAAAC | 1.03 ± 0.077
161 | GCTATAAGGG | 1 ± 0.036
162 | GCTATAGAAT | 1.01 ± 0.028
163 | GCTATAGGGG | 1.02 ± 0.02
164 | GCTATAGGTG | 1.27 ± 0.057
165 | GCTATAGTGG | 1.04 ± 0.035
166 | GCTATAGTGT | 0.992 ± 0.021
167 | GCTATATACA | 1.04 ± 0.014
168 | GCTATCATCG | 0.997 ± 0.035
169 | GCTATCGGGA | 1.01 ± 0.037
170 | GCTATCTGCT | 0.976 ± 0.06
171 | GCTATGAAAA | 0.986 ± 0.028
172 | GCTATGAG | 0.995 ± 0.037
173 | GCTATGGTGG | 0.987 ± 0.021
174 | GCTATGTAGG | 1 ± 0.062
175 | GCTCAAAGTT | 0.99 ± 0.02

Row | Sequence | switch fluorescence ratio
176 | GCTCAAGTGC | 1.07 ± 0.032
177 | GCTCAGGGGG | 1.03 ± 0.016
178 | GCTCATAGGA | 0.972 ± 0.016
179 | GCTCCATGGG | 1.02 ± 0.046
180 | GCTCCCAAGG | 3.69 ± 0.46
181 | GCTCCCGGGC | 1.1 ± 0.041
182 | GCTCCGATAG | 5.2 ± 0.94
183 | GCTCCTGACT | 1.15 ± 0.026
184 | GCTCGAAAGA | 1.008 ± 0.0024
185 | GCTCGAATTA | 1.02 ± 0.016
186 | GCTCGACAAT | 1.15 ± 0.14
187 | GCTCGGAGGA | 1 ± 0.025
188 | GCTCGGGGGA | 0.978 ± 0.022
189 | GCTCGGGGTC | 0.978 ± 0.062
190 | GCTCTAAGGG | 1.01 ± 0.028
191 | GCTCTAGATG | 1.04 ± 0.0076
192 | GCTCTATACG | 1.049 ± 0.003
193 | GCTCTGGCTA | 1.11 ± 0.022
194 | GCTCTTGTGC | 1.008 ± 0.0034
195 | GCTCTTTAGA | 0.962 ± 0.018
196 | GCTCTTTGAA | 1.01 ± 0.012
197 | GCTGAAGGGA | 0.99 ± 0.042
198 | GCTGAAGTTT | 0.979 ± 0.038
199 | GCTGAGAGTC | 0.992 ± 0.034
200 | GCTGAGGGTT | 0.9552 ± 0.006
